Biological target: SlGAMYB2-GST (Solanum lycopersicum, UniProt A0A3Q7H2U6 1-504)
Assay: EMSA

| Binder | binding result |
| --- | --- |
| SlGA3ox2 probe P2 (dsDNA) DNA 1: CAATTATTTGTCAATATTTGGTTAAATACTTGTTTAATAGTATAC DNA 2: GTATACTATTAAACAAGTATTTAACCAAATATTGACAAATAATTG | binds |
| SlGA3ox2 probe P3 (dsDNA) DNA 1: CCCATACAACTTTGCGATGTTAATGGTTATAACTATAAAGGGAGA DNA 2: TCTCCCTTTATAGTTATAACCATTAACATCGCAAAGTTGTATGGG | binds |
| SlGA3ox2 probe P1 (dsDNA) DNA 1: GCACTTAAGATCATAATTAATGATTTCAGTTACCGCAATAAAATG DNA 2: CATTTTATTGCGGTAACTGAAATCATTAATTATGATCTTAAGTGC | no binding |
| SlGA3ox2 probe P4 (dsDNA) DNA 1: CTATAATTGAATTGAATTCAGTTAACTGTCGAAATTGGAATGGTA DNA 2: TACCATTCCAATTTCGACAGTTAACTGAATTCAATTCAATTATAG | no binding |
| SlGA3ox1 probe P5 (dsDNA) DNA 1: TTAACAAAGACAAATTAGTTGATTGGTTAAAGACAATCAATATGT DNA 2: ACATATTGATTGTCTTTAACCAATCAACTAATTTGTCTTTGTTAA | no binding |

Reference: PMC9055814
